Literature values as cited in article PMC12694644.

Molecular target: IL-23 p19 (Homo sapiens) (UniProt Q9NPF7)
Sequence (Q9NPF7 20-189): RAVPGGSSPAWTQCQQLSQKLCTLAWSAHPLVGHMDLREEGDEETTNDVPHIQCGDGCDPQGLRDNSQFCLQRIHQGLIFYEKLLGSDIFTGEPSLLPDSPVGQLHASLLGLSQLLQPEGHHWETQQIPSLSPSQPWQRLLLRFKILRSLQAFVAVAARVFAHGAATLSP

Guselkumab
Kd: 3.3 pM
